Assay results reported in article PMC13045352, “Mapping Epidermal Growth Factor Receptor‑1 Sorting Domains in Endosomes with a Calibrated Three-Dimensional Expansion Microscopy Toolkit” (ACS Nano, 2026).

Biological target: the molecule itself
Experiment: negative-stain transmission electron microscopy; purified nanocages on glow-discharged carbon film-coated grids, stained with uranyl formate; particle widths measured (mean 28.3 nm)

B1: I3-01_60eGFP monomer of the self-assembling 60-subunit nanocage (one N-terminal eGFP per subunit) (other)
chain: GSGGSGGSGGSGGSGKIEELFKKHKIVAVLRANSVEEAKKKALAVFLGGVHLIEITFTVPDADTVIKELSFLKEMGAIIGAGTVTSVEQCRKAVESGAEFIVSPHLDEEISQFCKEKGVFYMPGVMTPTELVKAMKLGHTILKLFPGEVVGPQFVKAMKGPFPNVKFVPTGGVNLDNVCEWFKAGVLAVGVGSALVKGTPVEVAEKAKAFVEKIRGCTEGSGSGSGSGS
notes: linker between the vector's eGFP and I3-01; begins with the BamHI site GGATCC; I3-01 designed nanocage subunit (David Baker's laboratory); C-terminal linker before the stop codon; Printed molecular weight of the monomer 55.72 kDa; also called 60mer decahedral nanocage; source: HeLa cells, transfected, purified from lysate (centrifugation, 1 MDa spin concentrator); also expressed in RPE-1 cells; …
B1: binds.
